One block for each substance: values may come before it.
Tests used:
Assay in all cases: cell-based or functional assay
[1] = target: Anti-EGFR Activatable Antibody c225v5-3954-2001
[2] = target: Anti-EGFR Activatable Antibody c225v5-3954-3001
[3] = target: Anti-EGFR Activatable Antibody with substrate 4001 (linker form not stated); as to Cleavability (%) MMP14: test concentration or dose not given here
[4] = target: Anti-EGFR Activatable Antibody c225v5-3954-5011
[5] = target: Anti-EGFR Activatable Antibody c225v5-3954-5007; as to Cleavability (%) Matriptase: test concentration or dose not given here; as to Cleavability (%) Neutrophil Elastase: test concentration or dose not given here
[6] = target: Anti-EGFR Activatable Antibody c225v5-3954-5013; as to Cleavability (%) Matriptase: test concentration or dose not given here
[7] = target: Anti-EGFR Activatable Antibody C225v5-3954-4008 (linker form not stated)
[8] = target: Anti-EGFR Activatable Antibody c225v5-3954-5006; as to Cleavability (%) MMP14: test concentration or dose not given here; as to Cleavability (%) Neutrophil Elastase: test concentration or dose not given here
[9] = target: Anti-EGFR Activatable Antibody c225v5-3954-5001; as to Cleavability (%) MMP14: test concentration or dose not given here; as to Cleavability (%) Matriptase: test concentration or dose not given here
[10] = target: Anti-EGFR Activatable Antibody c225v5-3954-5008; as to Cleavability (%) Matriptase: test concentration or dose not given here; as to Cleavability (%) Neutrophil Elastase: test concentration or dose not given here
[11] = target: Anti-EGFR Activatable Antibody c225v5-3954-4014SL; as to MMP14 Cleavability (%): test concentration or dose not given here
[12] = target: Anti-EGFR Activatable Antibody c225v5-3954-4011SL
[13] = target: Anti-EGFR Activatable Antibody c225v5-3954-4001LL; as to MMP14 Cleavability (%): test concentration or dose not given here
[14] = target: Anti-EGFR Activatable Antibody c225v5-3954-4004LL
[15] = target: Anti-EGFR Activatable Antibody c225v5-3954-5010
[16] = target: Anti-EGFR Activatable Antibody c225v5-3954-5009
[17] = target: Anti-EGFR Activatable Antibody c225v5-3954-4002SL
[18] = target: Anti-EGFR Activatable Antibody c225v5-3954-4003SL
[19] = target: Anti-EGFR Activatable Antibody c225v5-3954-4012SL
[20] = target: Anti-EGFR Activatable Antibody c225v5-3954-5004
[21] = target: Anti-EGFR Activatable Antibody c225v5-3954-5002; as to Cleavability (%) Neutrophil Elastase: test concentration or dose not given here
[22] = target: Anti-EGFR Activatable Antibody c225v5-3954-4010SL
[23] = target: Anti-EGFR Activatable Antibody c225v5-3954-5005
[24] = target: Anti-EGFR Activatable Antibody c225v5-3954-4007SL
[25] = target: Anti-EGFR Activatable Antibody c225v5-3954-5012
[26] = target: Anti-EGFR Activatable Antibody c225v5-3954-4005SL; as to MMP14 Cleavability (%): test concentration or dose not given here
[27] = target: Anti-EGFR Activatable Antibody c225v5-3954-4006SL
[28] = target: Anti-EGFR Activatable Antibody c225v5-3954-4009SL
[29] = target: Anti-EGFR Activatable Antibody c225v5-3954-4008LL
[30] = target: Anti-EGFR Activatable Antibody c225v5-3954-5003; as to Cleavability (%) MMP14: test concentration or dose not given here
[31] = target: Anti-EGFR Activatable Antibody c225v5-3954-4006LL; as to MMP14 Cleavability (%): test concentration or dose not given here
[32] = target: Anti-EGFR Activatable Antibody c225v5-3954-4015LL
[33] = target: Anti-EGFR Activatable Antibody c225v5-3954-4001SL

recombinant matriptase, sequence (Q9Y5Y6 615-855 limits assumed): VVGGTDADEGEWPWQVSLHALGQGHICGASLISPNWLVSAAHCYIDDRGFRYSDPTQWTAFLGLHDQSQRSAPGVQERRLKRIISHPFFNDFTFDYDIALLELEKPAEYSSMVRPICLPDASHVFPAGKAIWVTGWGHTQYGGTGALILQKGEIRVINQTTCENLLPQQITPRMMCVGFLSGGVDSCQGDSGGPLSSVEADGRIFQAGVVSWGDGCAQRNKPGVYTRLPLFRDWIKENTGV
recombinant MMP2, sequence (P08253 110-660 limits assumed): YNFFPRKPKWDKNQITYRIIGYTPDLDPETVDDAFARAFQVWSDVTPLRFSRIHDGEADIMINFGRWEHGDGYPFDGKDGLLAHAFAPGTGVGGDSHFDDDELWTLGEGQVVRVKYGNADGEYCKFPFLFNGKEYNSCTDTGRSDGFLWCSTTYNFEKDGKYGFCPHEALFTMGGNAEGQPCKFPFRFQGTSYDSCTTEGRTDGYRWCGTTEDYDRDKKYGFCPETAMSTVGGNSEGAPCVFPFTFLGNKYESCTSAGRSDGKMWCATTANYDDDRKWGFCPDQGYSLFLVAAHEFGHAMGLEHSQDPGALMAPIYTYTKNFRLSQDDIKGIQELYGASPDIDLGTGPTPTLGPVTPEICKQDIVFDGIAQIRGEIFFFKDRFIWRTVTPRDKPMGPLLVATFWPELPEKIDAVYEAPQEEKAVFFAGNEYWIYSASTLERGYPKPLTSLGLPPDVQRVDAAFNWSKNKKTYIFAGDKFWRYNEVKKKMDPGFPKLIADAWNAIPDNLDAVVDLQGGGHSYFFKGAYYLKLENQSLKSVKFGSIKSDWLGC
recombinant neutrophil elastase, sequence (P08246 30-267 limits assumed): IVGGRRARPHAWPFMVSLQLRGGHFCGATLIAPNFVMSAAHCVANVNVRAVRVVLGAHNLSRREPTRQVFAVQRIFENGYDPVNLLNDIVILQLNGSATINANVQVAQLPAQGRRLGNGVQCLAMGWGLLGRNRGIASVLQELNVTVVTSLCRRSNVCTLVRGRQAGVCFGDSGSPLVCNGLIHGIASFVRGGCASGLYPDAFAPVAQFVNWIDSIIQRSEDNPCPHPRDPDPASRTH

Substance: recombinant MMP2 (from UniProt P08253 110-660) (enzyme)
- Kcat/Km (M^-1 s^-1) MMP2 [1]: 13200 M⁻¹ s⁻¹
- Kcat/Km (M^-1 s^-1) MMP2 [2]: 310000 M⁻¹ s⁻¹
- Kcat/Km (M^-1 s^-1) MMP2 [3]: 57600 M⁻¹ s⁻¹
- Kcat/Km (M^-1 s^-1) MMP2 [4]: 3380 M⁻¹ s⁻¹
- Kcat/Km (M^-1 s^-1) MMP2 [5]: 98300 M⁻¹ s⁻¹
- Kcat/Km (M^-1 s^-1) MMP2 [6]: 76500 M⁻¹ s⁻¹
- Kcat/Km (M^-1 s^-1) MMP2 [7]: 13000 M⁻¹ s⁻¹
- Kcat/Km (M^-1 s^-1) MMP2 [8]: 36900 M⁻¹ s⁻¹

Substance: recombinant MMP9 (from UniProt P14780 107-707) (enzyme)
- Cleavability (%) MMP9 [9]: 76%
- Cleavability (%) MMP9 [1]: 22%
- Kcat/Km (M^-1 s^-1) MMP9 [1]: 394 M⁻¹ s⁻¹
- Cleavability (%) MMP9 [10]: 100%
- Kcat/Km (M^-1 s^-1) MMP9 [2]: 50500 M⁻¹ s⁻¹
- MMP9 Cleavability (%) [11]: 0%
- MMP9 Cleavability (%) [12]: 78.8%
- MMP9 Cleavability (%) [13]: 100%
- Cleavability (%) MMP9 [3]: 100%
- Kcat/Km (M^-1 s^-1) MMP9 [3]: 8840 M⁻¹ s⁻¹
- Cleavability (%) MMP9 [4]: 55%
- Kcat/Km (M^-1 s^-1) MMP9 [4]: 4180 M⁻¹ s⁻¹
- MMP9 Cleavability (%) [14]: 29.8%
- Cleavability (%) MMP9 [15]: 0%
- Cleavability (%) MMP9 [16]: 78%
- MMP9 Cleavability (%) [17]: 87.5%
- MMP9 Cleavability (%) [18]: 6%
- MMP9 Cleavability (%) [19]: 56.5%
- Cleavability (%) MMP9 [20]: 86%
- Cleavability (%) MMP9 [21]: 37%
- Cleavability (%) MMP9 [5]: 77%
- Kcat/Km (M^-1 s^-1) MMP9 [5]: 25300 M⁻¹ s⁻¹
- Cleavability (%) MMP9 [6]: 62%
- Kcat/Km (M^-1 s^-1) MMP9 [6]: 10400 M⁻¹ s⁻¹
- MMP9 Cleavability (%) [22]: 18%
- Cleavability (%) MMP9 [23]: 72%
- MMP9 Cleavability (%) [24]: 69.5%
- Cleavability (%) MMP9 [25]: 52%
- MMP9 Cleavability (%) [26]: 70.5%
- Cleavability (%) MMP9 [7]: 100%
- Kcat/Km (M^-1 s^-1) MMP9 [7]: 18700 M⁻¹ s⁻¹
- MMP9 Cleavability (%) [27]: 92.9%
- MMP9 Cleavability (%) [28]: 22.1%
- MMP9 Cleavability (%) [29]: 55.2%
- Cleavability (%) MMP9 [30]: 100%
- MMP9 Cleavability (%) [31]: 90.8%
- Cleavability (%) MMP9 [8]: 81%
- Kcat/Km (M^-1 s^-1) MMP9 [8]: 33900 M⁻¹ s⁻¹
- MMP9 Cleavability (%) [32]: 90%
- MMP9 Cleavability (%) [33]: 94.5%

Substance: recombinant legumain (from UniProt Q99538 18-323) (enzyme)
- Cleavability (%) Legumain [9]: 0%
- Cleavability (%) Legumain [1]: 5%
- Cleavability (%) Legumain [10]: 0%
- Cleavability (%) Legumain [2]: 0%
- Cleavability (%) Legumain [3]: 0%
- Cleavability (%) Legumain [4]: 0%
- Cleavability (%) Legumain [15]: 0%
- Cleavability (%) Legumain [16]: 0%
- Cleavability (%) Legumain [20]: 27%
- Cleavability (%) Legumain [21]: 21%
- Cleavability (%) Legumain [5]: 0%
- Cleavability (%) Legumain [6]: 9%
- Cleavability (%) Legumain [23]: 0%
- Cleavability (%) Legumain [25]: 7%
- Cleavability (%) Legumain [7]: 0%
- Cleavability (%) Legumain [30]: 0%
- Cleavability (%) Legumain [8]: 0%

Other lines, results leading:

- Cleavability (%) MMP14 [9]: 76%
- Cleavability (%) MMP14 [1]: 58%
- Kcat/Km (M^-1 s^-1) MMP14 [1]: 6330 M⁻¹ s⁻¹
- Cleavability (%) MMP14 [10]: 55%
- Kcat/Km (M^-1 s^-1) MMP14 [2]: 17000 M⁻¹ s⁻¹
- MMP14 Cleavability (%) [11]: 30.5%
- MMP14 Cleavability (%) [12]: 9.9%
- MMP14 Cleavability (%) [13]: 100%
- Cleavability (%) MMP14 [3]: 77%
- Kcat/Km (M^-1 s^-1) MMP14 [3]: 6010 M⁻¹ s⁻¹
- Cleavability (%) MMP14 [4]: 7%
- Kcat/Km (M^-1 s^-1) MMP14 [4]: 444 M⁻¹ s⁻¹
- MMP14 Cleavability (%) [14]: 46.2%
- Cleavability (%) MMP14 [15]: 11%
- Cleavability (%) MMP14 [16]: 9%
- MMP14 Cleavability (%) [17]: 85.9%
- MMP14 Cleavability (%) [18]: 53.1%
- MMP14 Cleavability (%) [19]: 0%
- Cleavability (%) MMP14 [20]: 19%
- Cleavability (%) MMP14 [21]: 58%
- Cleavability (%) MMP14 [5]: 90%
- Kcat/Km (M^-1 s^-1) MMP14 [5]: 9250 M⁻¹ s⁻¹
- Cleavability (%) MMP14 [6]: 78%
- Kcat/Km (M^-1 s^-1) MMP14 [6]: 7770 M⁻¹ s⁻¹
- MMP14 Cleavability (%) [22]: 0%
- Cleavability (%) MMP14 [23]: 34%
- MMP14 Cleavability (%) [24]: 0%
- Cleavability (%) MMP14 [25]: 72%
- MMP14 Cleavability (%) [26]: 24.4%
- Cleavability (%) MMP14 [7]: 6%
- Kcat/Km (M^-1 s^-1) MMP14 [7]: 230 M⁻¹ s⁻¹
- MMP14 Cleavability (%) [27]: 85.7%
- MMP14 Cleavability (%) [28]: 0%
- MMP14 Cleavability (%) [29]: 0%
- Cleavability (%) MMP14 [30]: 20%
- MMP14 Cleavability (%) [31]: 84.2%
- Cleavability (%) MMP14 [8]: 6%
- Kcat/Km (M^-1 s^-1) MMP14 [8]: 564 M⁻¹ s⁻¹
- MMP14 Cleavability (%) [32]: 0%
- MMP14 Cleavability (%) [33]: 96.5%
Substance: recombinant MMP14 (from UniProt P50281 112-538) (enzyme)

- Cleavability (%) Matriptase [9]: 100%
- Cleavability (%) Matriptase [1]: 53%
- Kcat/Km (M^-1 s^-1) Matriptase [1]: 2550 M⁻¹ s⁻¹
- Cleavability (%) Matriptase [10]: 98%
- Kcat/Km (M^-1 s^-1) Matriptase [2]: 5350 M⁻¹ s⁻¹
- Cleavability (%) Matriptase [3]: 0%
- Kcat/Km (M^-1 s^-1) Matriptase [3]: 0 M⁻¹ s⁻¹
- Cleavability (%) Matriptase [4]: 80%
- Kcat/Km (M^-1 s^-1) Matriptase [4]: 1430 M⁻¹ s⁻¹
- Cleavability (%) Matriptase [15]: 0%
- Cleavability (%) Matriptase [16]: 100%
- Cleavability (%) Matriptase [20]: 75%
- Cleavability (%) Matriptase [21]: 100%
- Cleavability (%) Matriptase [5]: 100%
- Kcat/Km (M^-1 s^-1) Matriptase [5]: 27200 M⁻¹ s⁻¹
- Cleavability (%) Matriptase [6]: 0%
- Kcat/Km (M^-1 s^-1) Matriptase [6]: 0 M⁻¹ s⁻¹
- Cleavability (%) Matriptase [23]: 6%
- Cleavability (%) Matriptase [25]: 0%
- Cleavability (%) Matriptase [7]: 40%
- Kcat/Km (M^-1 s^-1) Matriptase [7]: 476 M⁻¹ s⁻¹
- Cleavability (%) Matriptase [30]: 99%
- Cleavability (%) Matriptase [8]: 100%
- Kcat/Km (M^-1 s^-1) Matriptase [8]: 5370 M⁻¹ s⁻¹
Substance: recombinant matriptase (from UniProt Q9Y5Y6 615-855) (enzyme)

- Cleavability (%) Neutrophil Elastase [9]: 88%
- Cleavability (%) Neutrophil Elastase [1]: 18%
- Kcat/Km (M^-1 s^-1) Neutrophil Elastase [1]: 3170 M⁻¹ s⁻¹
- Cleavability (%) Neutrophil Elastase [10]: 66%
- Cleavability (%) Neutrophil Elastase [2]: 52%
- Kcat/Km (M^-1 s^-1) Neutrophil Elastase [2]: 19100 M⁻¹ s⁻¹
- Cleavability (%) Neutrophil Elastase [3]: 37%
- Cleavability (%) Neutrophil Elastase [4]: 100%
- Kcat/Km (M^-1 s^-1) Neutrophil Elastase [4]: 665000 M⁻¹ s⁻¹
- Cleavability (%) Neutrophil Elastase [15]: 100%
- Cleavability (%) Neutrophil Elastase [16]: 31%
- Cleavability (%) Neutrophil Elastase [20]: 84%
- Cleavability (%) Neutrophil Elastase [21]: 67%
- Cleavability (%) Neutrophil Elastase [5]: 74%
- Kcat/Km (M^-1 s^-1) Neutrophil Elastase [5]: 24200 M⁻¹ s⁻¹
- Cleavability (%) Neutrophil Elastase [6]: 56%
- Cleavability (%) Neutrophil Elastase [23]: 81%
- Cleavability (%) Neutrophil Elastase [25]: 55%
- Cleavability (%) Neutrophil Elastase [7]: 28%
- Cleavability (%) Neutrophil Elastase [30]: 77%
- Cleavability (%) Neutrophil Elastase [8]: 30%
Substance: recombinant neutrophil elastase (from UniProt P08246 30-267) (enzyme)
